Test results from publication PMC12247212 (RSC Chemical Biology, 2025).

Experiments:
β2-microglobulin [1] = target: T1, β2-microglobulin (Homo sapiens (assumed), UniProt P61769); experiment: BLI; SpyBLI single-cycle kinetics, Octet-K2; purified SpyTagged nanobody or scFv loaded at 100 nM onto biotinylated SpyCatcher003 S49C on streptavidin sensors; purified antigen as analyte at five increasing concentrations; 30 °C, 1000 rpm, PBS pH 7.5, 0.05% Tween-20; 1:1 standard model (1:1 partial dissociation model for Nb24); averages of three independent experiments; details: both partners purified
T1 construct: β2-microglobulin, recombinant; MW ~12 kDa

β2-microglobulin [2] = target: T1, β2-microglobulin; experiment: BLI; SpyBLI single-cycle kinetics, Octet-K2; SpyTagged nanobody or scFv loaded from crude mammalian cell supernatant (1:1 with PBS + 0.05% Tween-20) onto biotinylated SpyCatcher003 S49C on streptavidin sensors; purified antigen as analyte at five increasing concentrations; 30 °C, 1000 rpm, PBS pH 7.5, 0.05% Tween-20; 1:1 standard model (1:1 partial dissociation model for Nb24); averages of three independent …; details: one partner purified
CD16a-mMBP [3] = target: T2, CD16a-mMBP (Homo sapiens, allotype  …, UniProt P08637); experiment: BLI; SpyBLI single-cycle kinetics, Octet-K2; purified SpyTagged nanobody or scFv loaded at 100 nM onto biotinylated SpyCatcher003 S49C on streptavidin sensors; purified antigen as analyte at five increasing concentrations; 30 °C, 1000 rpm, PBS pH 7.5, 0.05% Tween-20; 1:1 standard model (1:1 partial dissociation model for Nb24); averages of three independent experiments; details: both partners purified
T2 construct: monovalent antigen; MW ~63 kDa; also called CD16a (FCGR3A); FcγRIIIa; source: Expi293F, transfected (pcDNA3.4 without SpyTag003), harvested 6 days post-transfection, purified

CD16a-mMBP [4] = target: T2, CD16a-mMBP; experiment: BLI; SpyBLI single-cycle kinetics, Octet-K2; SpyTagged nanobody or scFv loaded from crude mammalian cell supernatant (1:1 with PBS + 0.05% Tween-20) onto biotinylated SpyCatcher003 S49C on streptavidin sensors; purified antigen as analyte at five increasing concentrations; 30 °C, 1000 rpm, PBS pH 7.5, 0.05% Tween-20; 1:1 standard model (1:1 partial dissociation model for Nb24); averages of three independent …; details: one partner purified
CD16a-mMBP [5] = target: T2, CD16a-mMBP; experiment: BLI; SpyBLI single-cycle kinetics, Octet-K2; SpyTagged nanobody or scFv loaded from cell-free reaction blend (diluted 100-fold in PBS + 0.05% Tween-20) onto biotinylated SpyCatcher003 S49C on streptavidin sensors; purified antigen as analyte at five increasing concentrations; 30 °C, 1000 rpm, PBS pH 7.5, 0.05% Tween-20; 1:1 standard model (1:1 partial dissociation model for Nb24); averages of three independent …; details: one partner purified
hen egg-white lysozyme = target: T3, hen egg-white lysozyme (Gallus gallus, UniProt P00698); experiment: as above; details: one partner purified
T3 construct: lysozyme from chicken egg-white, Sigma-Aldrich 62971; also called Lysozyme from chicken egg-white; source: bought: Sigma-Aldrich (62971); further purified by SEC (Superdex 75 Increase)

β2-microglobulin [6] = target: T1, β2-microglobulin; experiment: as above; details: one partner purified

T3 sequence (P00698 19-147): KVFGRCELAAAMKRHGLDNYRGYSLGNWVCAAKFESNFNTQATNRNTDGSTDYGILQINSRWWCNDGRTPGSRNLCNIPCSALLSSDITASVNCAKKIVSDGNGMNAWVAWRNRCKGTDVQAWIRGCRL
T2 sequence (P08637 17-254): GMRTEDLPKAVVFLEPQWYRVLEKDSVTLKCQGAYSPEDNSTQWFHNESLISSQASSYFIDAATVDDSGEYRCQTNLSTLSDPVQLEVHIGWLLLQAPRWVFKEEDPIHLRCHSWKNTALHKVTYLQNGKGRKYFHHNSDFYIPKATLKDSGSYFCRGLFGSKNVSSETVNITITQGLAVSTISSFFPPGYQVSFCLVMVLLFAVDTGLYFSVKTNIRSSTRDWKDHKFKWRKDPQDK

B1: Nb24, SpyTagged nanobody (mammalian expression) (VHH)
VHH: QVQLQESGGGSVQAGGSLRLSCAASGYTDSRYCMAWFRQAPGKEREWVARINSGRDITYYADSVKGRFTFSQDNAKNTVYLQMDSLEPEDTATYYCATDIPLRCRDIVAKGGDGFRYWGQGTQVTVSS
notes: nanobody Nb24; (G3S)2 linker between the nanobody and SpyTag003; Covalently captured on biotinylated SpyCatcher003 S49C on streptavidin sensors; also called anti-β2-microglobulin nanobody Nb24; Nb24-SpyTag003; source: Expi293F, transfected (pcDNA3.4); purified (His Mag Sepharose Excel, SEC) or used directly as crude mammalian cell supernatant; not shown: SpyTag003 (after a (G3S)2 linker), …
A Kd (β2-microglobulin [1]) of 49.6 nM, a koff (β2-microglobulin [1]) of 0.0112 s⁻¹ and a kon (β2-microglobulin [1]) of 230000 M⁻¹ s⁻¹ were found for B1 in this work. It also gave a Kd (β2-microglobulin [2]) of 50 nM, a koff (β2-microglobulin [2]) of 0.0114 s⁻¹ and a kon (β2-microglobulin [2]) of 240000 M⁻¹ s⁻¹.

B2: anti-CD16a scFv, SpyTagged (mammalian expression) (scFv, V domains shown)
VH: EVQLVQSGAEVKKPGESLKVSCKASGYTFTSYYMHWVRQAPGQGLEWMGAIEPMYGSTSYAQKFQGRVTMTRDTSTSTVYMELSSLRSEDTAVYYCARGSAYYYDFADYWGQGTLVTVSS
VL: SYVLTQPSSVSVAPGQTATISCGGHNIGSKNVHWYQQRPGQSPVLVIYQDNKRPSGIPERFSGSNSGNTATLTISGTQAMDEADYYCQVWDNYSVLFGGGTKLTVL
notes: scFv of the FcγRIIIa-targeting arm of RO7297089; (G3S)2 linker between the scFv and SpyTag003; also called FcγRIIIa-targeting arm of the bispecific antibody RO7297089; source: Expi293F, transfected (pcDNA3.4); purified (His Mag Sepharose Excel, SEC) or used directly as crude mammalian cell supernatant; not shown: SpyTag003 (after a (G3S)2 linker), C-terminal, kept
A Kd (CD16a-mMBP [3]) of 6.7 nM, a koff (CD16a-mMBP [3]) of 0.00113 s⁻¹ and a kon (CD16a-mMBP [3]) of 171000 M⁻¹ s⁻¹ were found for B2 in this work. The Kd (CD16a-mMBP [4]) was 4.3 nM, the koff (CD16a-mMBP [4]) was 0.00081 s⁻¹ and the kon (CD16a-mMBP [4]) was 187000 M⁻¹ s⁻¹.

B3: anti-CD16a scFv, SpyTagged (cell-free expression) (scFv, V domains shown)
VH: EVQLVQSGAEVKKPGESLKVSCKASGYTFTSYYMHWVRQAPGQGLEWMGAIEPMYGSTSYAQKFQGRVTMTRDTSTSTVYMELSSLRSEDTAVYYCARGSAYYYDFADYWGQGTLVTVSS
VL: SYVLTQPSSVSVAPGQTATISCGGHNIGSKNVHWYQQRPGQSPVLVIYQDNKRPSGIPERFSGSNSGNTATLTISGTQAMDEADYYCQVWDNYSVLFGGGTKLTVL
notes: as the scFv of m3; The cell-free fragment design has an optional His-tag; not shown: SpyTag003 (after a (G3S)2 linker), C-terminal, kept
A Kd (CD16a-mMBP [5]) of 8.1 nM, a koff (CD16a-mMBP [5]) of 0.0018 s⁻¹ and a kon (CD16a-mMBP [5]) of 220000 M⁻¹ s⁻¹ were found for B3 in this work.

B4: cAb-Lys3, SpyTagged nanobody (VHH)
VHH: DVQLQASGGGSVQAGGSLRLSCAASGYTIGPYCMGWFRQAPGKEREGVAAINMGGGITYYADSVKGRFTISQDNAKNTVYLLMNSLEPEDTAIYYCAADSTIYASYYECGHGLSTGGYGYDSWGQGTQVTVSS
notes: nanobody cAb-Lys3; The cell-free fragment design has an optional His-tag; also called Nb cAb-Lys3; not shown: SpyTag003 (after a (G3S)2 linker), C-terminal, kept
A Kd (hen egg-white lysozyme) of 0.67 nM, a koff (hen egg-white lysozyme) of 0.00116 s⁻¹ and a kon (hen egg-white lysozyme) of 1.7e+06 M⁻¹ s⁻¹ were found for B4 in this work.

B5: Nb24, SpyTagged nanobody (cell-free expression) (VHH)
VHH: QVQLQESGGGSVQAGGSLRLSCAASGYTDSRYCMAWFRQAPGKEREWVARINSGRDITYYADSVKGRFTFSQDNAKNTVYLQMDSLEPEDTATYYCATDIPLRCRDIVAKGGDGFRYWGQGTQVTVSS
notes: nanobody Nb24; as the VHH of m1; The cell-free fragment design has an optional His-tag; also called Nb24-SpyTag003; not shown: SpyTag003 (after a (G3S)2 linker), C-terminal, kept
A Kd (β2-microglobulin [6]) of 63.8 nM, a koff (β2-microglobulin [6]) of 0.014 s⁻¹ and a kon (β2-microglobulin [6]) of 220000 M⁻¹ s⁻¹ were found for B5 in this work.
